B2: Pol III subunit C53 (within purified Pol III) (natural protein, UniProt P25441 1-422, looked up)
chain: MSSNKGNGRLPSLKDSSSNGGGSAKPSLKFKPKAVARKSKEEREAAASKVKLEEESKRGNDKKHFNNKNKRVTGAGGQQRRMAKYLNNTHVISSGPLAAGNFVSEKGDLRRGFIKSEGSGSSLVQKGLETIDNGAESSENEAEDDDNEGVASKSKKKFNMGKEFEARNLIEDEDDGESEKSSDVDMDDEEWRSKRIEQLFPVRPVRVRHEDVETVKREIQEALSEKPTREPTPSVKTEPVGTGLQSYLEERERQVNEKLADLGLEKEFQSVDGKEAAAELELLNADHQHILRKLKKMNNKPERFMVFQLPTRLPAFERPAVKEEKEDMETQASDPSKKKKNIKKKDTKDALSTRELAGKVGSIRVHKSGKLSVKIGNVVMDIGKGAETTFLQDVIALSIADDASSAELLGRVDGKIVVTPQI
notes: RNA polymerase III subunit C53, S. cerevisiae; N-terminal low-complexity region C53-Nt is residues 1-274; Subunit of m2, written alone for the pairs that touch in the structures; source: endogenous, S. cerevisiae strain SC1613, purified as part of Pol III (IgG Sepharose, TEV elution, Mono-Q)

How the values were obtained:
[1] = target: RNA polymerase III (Pol III), 17 subunits, isolated from yeast (S. cerevisiae (endogenous in strain SC1613)) (UniProt P04051); test: native gel or EMSA; recombinant IN1 mixed with Pol III isolated from yeast, free of nucleic acids; native gel electrophoresis
[2] = target: B2; test: cryo-EM structure; Pol III and IN1 both at 0.5 uM in 20 mM HEPES-NaOH pH 7.5, 170 mM NaCl, 2 mM DTT, 30 min at 4 °C; crosslinked with 0.06% glutaraldehyde; no nucleic acids (maps A-C); conditions: both partners purified
[3] = target: T1, Pol III subunit C37 (within purified Pol III) (S. cerevisiae (endogenous in strain …, UniProt P36121 1-282)); test: as above; conditions: both partners purified
T1 construct: RNA polymerase III subunit C37, S. cerevisiae; Subunit of m2, written alone for the pairs that touch in the structures; source: endogenous, S. cerevisiae strain SC1613, purified as part of Pol III (IgG Sepharose, TEV elution, Mono-Q)
T1 sequence (looked up): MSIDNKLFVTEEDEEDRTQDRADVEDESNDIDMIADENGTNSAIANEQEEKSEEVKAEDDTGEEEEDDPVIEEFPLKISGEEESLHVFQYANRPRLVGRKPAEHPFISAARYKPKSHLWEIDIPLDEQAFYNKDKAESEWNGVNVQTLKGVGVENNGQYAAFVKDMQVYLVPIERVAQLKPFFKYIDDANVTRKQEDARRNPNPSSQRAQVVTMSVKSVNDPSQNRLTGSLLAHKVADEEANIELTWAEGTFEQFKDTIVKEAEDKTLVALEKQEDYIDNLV

[4] = target: T2, Pol III subunit C128 (within purified Pol III) (S. cerevisiae (endogenous in strain …, UniProt P22276 1-1149)); test: as above; conditions: both partners purified
T2 construct: RNA polymerase III second largest subunit C128, S. cerevisiae; Subunit of m2, written alone for the pairs that touch in the structures; source: endogenous, S. cerevisiae strain SC1613, purified as part of Pol III (IgG Sepharose, TEV elution, Mono-Q)
T2 sequence (looked up): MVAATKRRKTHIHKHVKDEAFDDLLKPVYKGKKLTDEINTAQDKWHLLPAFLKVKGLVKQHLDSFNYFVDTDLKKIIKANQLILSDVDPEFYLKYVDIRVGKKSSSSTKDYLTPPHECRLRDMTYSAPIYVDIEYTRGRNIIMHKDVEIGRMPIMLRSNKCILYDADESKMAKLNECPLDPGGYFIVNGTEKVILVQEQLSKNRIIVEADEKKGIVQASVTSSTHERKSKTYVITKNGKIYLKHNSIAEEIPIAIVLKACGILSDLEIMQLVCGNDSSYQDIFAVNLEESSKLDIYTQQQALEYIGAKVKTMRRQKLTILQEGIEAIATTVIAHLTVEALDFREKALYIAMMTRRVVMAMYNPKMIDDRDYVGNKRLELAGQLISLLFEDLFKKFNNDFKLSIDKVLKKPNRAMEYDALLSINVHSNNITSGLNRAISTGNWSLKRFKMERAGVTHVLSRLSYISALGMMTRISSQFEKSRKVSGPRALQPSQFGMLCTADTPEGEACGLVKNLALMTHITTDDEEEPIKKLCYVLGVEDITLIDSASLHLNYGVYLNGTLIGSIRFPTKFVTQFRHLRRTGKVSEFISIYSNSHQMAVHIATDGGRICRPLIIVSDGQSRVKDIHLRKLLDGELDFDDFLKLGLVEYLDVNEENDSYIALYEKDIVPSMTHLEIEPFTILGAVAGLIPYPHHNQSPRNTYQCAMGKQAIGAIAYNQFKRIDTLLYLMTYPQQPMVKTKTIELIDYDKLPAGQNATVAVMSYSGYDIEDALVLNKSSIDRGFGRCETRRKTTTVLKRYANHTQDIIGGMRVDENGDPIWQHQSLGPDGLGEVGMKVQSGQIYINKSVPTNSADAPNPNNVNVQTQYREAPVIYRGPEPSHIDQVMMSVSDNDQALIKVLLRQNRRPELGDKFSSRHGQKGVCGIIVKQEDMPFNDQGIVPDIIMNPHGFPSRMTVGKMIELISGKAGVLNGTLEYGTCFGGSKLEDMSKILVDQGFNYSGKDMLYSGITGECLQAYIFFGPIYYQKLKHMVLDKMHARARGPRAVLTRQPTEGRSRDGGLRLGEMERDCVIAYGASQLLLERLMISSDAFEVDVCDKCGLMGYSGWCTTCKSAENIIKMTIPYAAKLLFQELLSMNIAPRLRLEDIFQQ

[5] = target: T3, Pol III subunit C160 (within purified Pol III) (S. cerevisiae (endogenous in strain …, UniProt P04051 1-1460)); test: cryo-EM structure; Pol III-DNA (0.4 uM, mismatched transcription bubble) mixed with 0.6 uM IN1, 30 min at 20 °C in 10 mM Hepes pH 7.5, 150 mM NaCl, 5 mM MgCl2, 5 mM DTT; 8 mM CHAPSO on the grid (map D); conditions: both partners purified
T3 construct: RNA polymerase III largest subunit C160, S. cerevisiae; Subunit of m2, written alone for the pairs that touch in the structures; source: endogenous, S. cerevisiae strain SC1613, purified as part of Pol III (IgG Sepharose, TEV elution, Mono-Q)
T3 sequence (looked up): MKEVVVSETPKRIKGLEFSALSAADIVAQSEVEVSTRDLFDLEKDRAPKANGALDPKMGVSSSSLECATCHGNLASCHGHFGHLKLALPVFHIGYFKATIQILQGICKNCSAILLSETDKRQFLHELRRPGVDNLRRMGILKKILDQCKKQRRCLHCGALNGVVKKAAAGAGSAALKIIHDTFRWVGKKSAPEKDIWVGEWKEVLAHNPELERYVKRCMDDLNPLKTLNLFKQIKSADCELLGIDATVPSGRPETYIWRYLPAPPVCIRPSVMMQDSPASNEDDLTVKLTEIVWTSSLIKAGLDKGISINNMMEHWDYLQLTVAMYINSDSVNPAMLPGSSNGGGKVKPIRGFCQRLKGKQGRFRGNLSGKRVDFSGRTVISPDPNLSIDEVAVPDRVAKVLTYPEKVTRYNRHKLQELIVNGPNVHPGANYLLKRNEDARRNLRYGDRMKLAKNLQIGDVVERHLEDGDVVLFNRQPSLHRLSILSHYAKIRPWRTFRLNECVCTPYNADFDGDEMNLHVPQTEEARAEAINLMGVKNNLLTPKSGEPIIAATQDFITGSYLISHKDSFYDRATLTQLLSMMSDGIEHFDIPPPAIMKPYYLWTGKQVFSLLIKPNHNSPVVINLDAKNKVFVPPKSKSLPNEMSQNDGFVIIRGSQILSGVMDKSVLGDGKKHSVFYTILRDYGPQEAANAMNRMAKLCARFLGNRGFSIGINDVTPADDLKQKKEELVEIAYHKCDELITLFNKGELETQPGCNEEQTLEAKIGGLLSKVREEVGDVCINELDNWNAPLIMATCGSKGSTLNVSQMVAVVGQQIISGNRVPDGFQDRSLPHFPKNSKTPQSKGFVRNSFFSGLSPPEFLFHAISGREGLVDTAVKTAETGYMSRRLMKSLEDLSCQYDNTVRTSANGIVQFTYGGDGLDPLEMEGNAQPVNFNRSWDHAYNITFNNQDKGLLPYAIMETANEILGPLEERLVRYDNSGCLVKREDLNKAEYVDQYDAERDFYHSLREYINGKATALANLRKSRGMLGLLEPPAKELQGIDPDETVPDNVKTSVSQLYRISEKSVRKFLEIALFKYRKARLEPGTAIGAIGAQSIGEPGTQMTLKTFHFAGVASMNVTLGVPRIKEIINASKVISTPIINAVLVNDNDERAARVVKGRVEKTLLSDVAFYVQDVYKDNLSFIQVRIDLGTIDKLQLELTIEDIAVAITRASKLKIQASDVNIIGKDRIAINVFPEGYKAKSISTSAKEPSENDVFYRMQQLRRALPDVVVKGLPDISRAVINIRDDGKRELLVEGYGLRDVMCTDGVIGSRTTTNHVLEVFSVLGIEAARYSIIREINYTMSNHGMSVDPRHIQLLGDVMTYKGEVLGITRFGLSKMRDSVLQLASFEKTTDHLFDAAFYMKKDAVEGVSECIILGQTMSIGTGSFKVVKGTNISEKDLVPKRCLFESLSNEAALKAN

[6] = target: T3, Pol III subunit C160 (within purified …); test: cryo-EM structure; Pol III and IN1 both at 0.5 uM in 20 mM HEPES-NaOH pH 7.5, 170 mM NaCl, 2 mM DTT, 30 min at 4 °C; crosslinked with 0.06% glutaraldehyde; no nucleic acids (maps A-C); conditions: both partners purified

Ty1 integrase (IN1), recombinant (from UniProt Q12414 583-1217) (enzyme)
stoichiometry N [1]: 1

B1: Pol III subunit C11 (within purified Pol III) (natural protein, UniProt Q04307 1-110, looked up)
chain: MLSFCPSCNNMLLITSGDSGVYTLACRSCPYEFPIEGIEIYDRKKLPRKEVDDVLGGGWDNVDQTKTQCPNYDTCGGESAYFFQLQIRSADEPMTTFYKCVNCGHRWKEN
notes: RNA polymerase III subunit C11, S. cerevisiae; two Zn-ribbons (residues 1-36 and 64-110) joined by a linker (37-63); Subunit of m2, written alone for the pairs that touch in the structures; source: endogenous, S. cerevisiae strain SC1613, purified as part of Pol III (IgG Sepharose, TEV elution, Mono-Q)
binding result [2]: binds | binding result [3]: binds | binding result [4]: binds | binding result [5]: binds

B2
binding result [6]: binds

— paper PMC10050235, “Structural basis of Ty1 integrase tethering to RNA polymerase III for targeted retrotransposon integration” (Nature Communications, 2023)
